{"source": "patent US20260265396A1", "key": {"[1]": {"biological_target": "His10-mTfR1 (SEQ ID NO:53) (mouse) (UniProt Q62351)", "sequence (Q62351 other isoform, or with tags, fused parts or gaps limits assumed)": "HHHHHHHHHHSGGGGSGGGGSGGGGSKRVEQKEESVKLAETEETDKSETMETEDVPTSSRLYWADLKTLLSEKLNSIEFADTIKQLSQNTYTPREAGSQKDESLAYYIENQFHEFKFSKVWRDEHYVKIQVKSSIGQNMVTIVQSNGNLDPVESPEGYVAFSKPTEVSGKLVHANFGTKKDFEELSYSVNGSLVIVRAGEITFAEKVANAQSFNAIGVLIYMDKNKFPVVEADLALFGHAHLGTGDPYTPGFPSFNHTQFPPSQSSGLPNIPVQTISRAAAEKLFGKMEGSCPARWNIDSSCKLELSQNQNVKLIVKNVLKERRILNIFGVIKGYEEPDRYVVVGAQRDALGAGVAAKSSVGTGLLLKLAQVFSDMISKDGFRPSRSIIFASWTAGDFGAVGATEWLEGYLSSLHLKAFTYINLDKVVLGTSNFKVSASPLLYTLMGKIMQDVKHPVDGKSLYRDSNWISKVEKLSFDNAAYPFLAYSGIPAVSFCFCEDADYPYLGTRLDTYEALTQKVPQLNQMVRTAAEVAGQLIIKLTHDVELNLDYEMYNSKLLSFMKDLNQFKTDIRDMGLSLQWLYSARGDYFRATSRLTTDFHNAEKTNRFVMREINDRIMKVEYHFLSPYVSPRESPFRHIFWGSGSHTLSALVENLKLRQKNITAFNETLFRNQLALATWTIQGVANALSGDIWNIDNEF", "experiment": "indirect ELISA, His10-mTfR1 captured on Ni-coated plate, hybridoma supernatant"}, "[2]": {"biological_target": "truncated hTfR1 of SEQ ID NO:89 (human) (UniProt P02786)", "sequence (P02786 other isoform, or with tags, fused parts or gaps limits assumed)": "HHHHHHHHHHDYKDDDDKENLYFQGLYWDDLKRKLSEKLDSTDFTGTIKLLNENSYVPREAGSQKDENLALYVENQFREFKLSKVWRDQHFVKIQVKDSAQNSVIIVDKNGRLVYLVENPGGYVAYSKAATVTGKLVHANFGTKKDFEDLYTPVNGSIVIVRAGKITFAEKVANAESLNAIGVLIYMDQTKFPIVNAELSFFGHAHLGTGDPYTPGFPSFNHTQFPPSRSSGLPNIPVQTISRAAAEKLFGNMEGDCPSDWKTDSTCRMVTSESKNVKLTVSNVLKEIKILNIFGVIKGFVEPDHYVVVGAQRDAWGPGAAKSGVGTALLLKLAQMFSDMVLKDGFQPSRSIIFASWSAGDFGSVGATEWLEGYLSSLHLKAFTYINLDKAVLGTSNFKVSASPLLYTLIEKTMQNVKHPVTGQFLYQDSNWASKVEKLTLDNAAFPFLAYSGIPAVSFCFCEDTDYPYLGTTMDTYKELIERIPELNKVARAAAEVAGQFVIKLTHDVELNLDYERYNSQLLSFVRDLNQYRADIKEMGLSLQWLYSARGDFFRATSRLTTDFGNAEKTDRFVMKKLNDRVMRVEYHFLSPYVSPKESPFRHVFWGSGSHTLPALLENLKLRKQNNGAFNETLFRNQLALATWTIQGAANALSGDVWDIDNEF", "experiment": "SPR, hTfR1 on CM5, bispecific molecule with scFv module injected"}}, "data": [{"binder": "mouse monoclonal antibody 26D3 (antibody, mouse IgG2a, V domains shown) VH: EVQLQQFGVELVKPGASVKISCKASGYIFTDYNMDWVKQSHGKSLEWIGDINPDYDTTSYNEKFKGKATLTVDKSSSTAYMELRSLTSEDTAVYYCARGGYSGSSYYHPMDYWGQGTSVTVSS VL: DIVMSQSPSSLAVSVGEKITMSCKSSQSLLYSTNQKNYLAWYQQKPGQSPELLIYWASTRESGVPDRFTGSGSGTDFTLTISNVRAEDLAVYYCQQYFIYPRTFGGGTKLEIK", "values": [{"measurement": "OD450 (indirect ELISA)", "setting": "[1]", "value": "> 0.2", "unit": "OD"}]}, {"binder": "bispecific binding molecule (format of WO2022/258841) with h26D3 scFv module (bispecific antibody, part only; not given: Cargo antibody chains, linkers, domain order, V domains shown, not shown: another chain or arm of the molecule; large carriers; small tags and cut ends) VH: EVQLVQSGAEVKKPGSSVKVSCKASGYIFTDYNMDWVRQAPGQGLEWIGDINPDYDTTSYNEKFKGRATLTVDKSTSTAYMELSSLRSEDTAVYYCARGGYSGSSYYHPMDYWGQGTLVTVSS VL: DIQMTQSPSSVSASVGDRVTITCKSSQSLLYSTNQKNYLAWYQQKPGKAPKLLIYWASTRESGVPSRFSGSGSGTDFTLTISSLQPEDFATYYCQQYFIYPRTFGQGTKVEIK", "values": [{"measurement": "Kd", "setting": "[2]", "value": 10, "unit": "nM"}]}, {"binder": "bispecific binding molecule (format of WO2022/258841) with h26D3 LC5 scFv module (bispecific antibody, part only; not given: cargo antibody chains, linkers, format, V domains shown, not shown: another chain or arm of the molecule; large carriers; small tags and cut ends) VH: EVQLVQSGAEVKKPGSSVKVSCKASGYIFTDYNMDWVRQAPGQGLEWIGDINPDYDTTSYNEKFKGRATLTVDKSTSTAYMELSSLRSEDTAVYYCARGGYSGSSYYHPMDYWGQGTLVTVSS VL: DIQMTQSPSSVSASVGDRVTITCKSSQSLLYSTNQKNYLAWYQQKPGKAPKLLIYWASTRESGVPSRFSGSGSGTDFTLTISSLQPEDFATYYCQQAFIYPRTFGQGTKVEIK", "values": [{"measurement": "Kd", "setting": "[2]", "value": "400 to 500", "unit": "nM"}]}, {"binder": "bispecific binding molecule (format of WO2022/258841) with h26D3 LC1 scFv module (bispecific antibody, part only; not given: Cargo antibody chains, linkers, domain order, V domains shown, not shown: another chain or arm of the molecule; large carriers; small tags and cut ends) VH: EVQLVQSGAEVKKPGSSVKVSCKASGYIFTDYNMDWVRQAPGQGLEWIGDINPDYDTTSYNEKFKGRATLTVDKSTSTAYMELSSLRSEDTAVYYCARGGYSGSSYYHPMDYWGQGTLVTVSS VL: DIQMTQSPSSVSASVGDRVTITCKSSQSLLASTNQKNYLAWYQQKPGKAPKLLIYWASTRESGVPSRFSGSGSGTDFTLTISSLQPEDFATYYCQQYFIYPRTFGQGTKVEIK", "values": [{"measurement": "Kd", "setting": "[2]", "value": 40, "unit": "nM"}]}, {"binder": "bispecific binding molecule (format of WO2022/258841) with h26D3 HC6 scFv module (bispecific antibody, part only; not given: Cargo antibody chains, linkers, domain order, V domains shown, not shown: another chain or arm of the molecule; large carriers; small tags and cut ends) VH: EVQLVQSGAEVKKPGSSVKVSCKASGYIFTDYNMDWVRQAPGQGLEWIGDINPDADTTSYNEKFKGRATLTVDKSTSTAYMELSSLRSEDTAVYYCARGGYSGSSYYHPMDYWGQGTLVTVSS VL: DIQMTQSPSSVSASVGDRVTITCKSSQSLLYSTNQKNYLAWYQQKPGKAPKLLIYWASTRESGVPSRFSGSGSGTDFTLTISSLQPEDFATYYCQQYFIYPRTFGQGTKVEIK", "values": [{"measurement": "Kd", "setting": "[2]", "value": "100 to 200", "unit": "nM"}]}]}
